Drawing on patent US20210388110A1 (published 2021), this text covers Kd for four molecules.

Test [1] concerns the target T1, soluble human CD3ε chain (human, UniProt P07766 23-126, limits assumed).
T1 construct: also called human CD3 epsilon chain
Description: SPR (Biacore), soluble human CD3ε chain.
T1 sequence (P07766 23-126 limits assumed): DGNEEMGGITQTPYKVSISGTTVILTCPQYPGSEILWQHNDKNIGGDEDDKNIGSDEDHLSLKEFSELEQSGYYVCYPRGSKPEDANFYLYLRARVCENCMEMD

In test [2] the target is T2, soluble human CD3ε chain (human, UniProt P07766 23-126, limits assumed).
T2 construct: the text says soluble human CD3ε chain; also called human CD3 epsilon chain
Description: SPR (Biacore).
T2 sequence (P07766 23-126 limits assumed): as above

B1: TR01H067-E22Hh/none-Hi-Kn010G3/L0000-k0 (antibody, human IgG1, kappa, L234A L235A, N297A)
heavy: QVQLVESGGGLVQPGRSLRLSCAASGFTFSNAWMHWVRQAPGKGLEWVAQIKDKSQNYATYYAESVKGRFTISRDDSKNSLYLQMNSLKTEDTAVYYCRYVHYAASYGVDAWGQGTTVTVSSASTKGPSVFPLAPSSKSTSGGTAALGCLVKDYFPEPVTVSWNSGALTSGVHTFPAVLQSSGLYSLSSVVTVPSSSLGTQTYICNVNHKPSNTKVDKKVEPKSCDKTHTCPPCPAPEAAGGPSVFLFPPKPKDTLMISRTPEVTCVVVDVSHEDPEVKFNWYVDGVEVHNAKTKPREEQYASTYRVVSVLTVLHQDWLNGKEYKCKVSNKALPAPIEKTISKAKGQPREPQVYTLPPSRCELTKNQVSLSCAVKGFYPSDIAVEWESNGQPENNYKTTPPVLDSDGSFFLVSKLTVDKSRWQQGNVFSCSVMHEALHNHYTQKSLSLSPDYKDDDDK
chain: EPKSSDKTHTCPPCPAPELLGGPSVFLFPPKPKDTLMISRTPEVTCVVVDVSHEDPEVKFNWYVDGVEVHNAKTKPREEQYNSTYRVVSVLTVLHQDWLNGKEYKCKVSNKALPAPIEKTISKAKGQPREPQVCTLPPSRDELTKNQVSLWCLVKGFYPSDIAVEWESNGQPENNYKTTPPVLDSDGSFFLYSKLTVDKSRWQQGNVFSCSVMHEALHNRYTQKSLSLSP
light: DIVMTQSPLSLPVTPGEPASISCRSSQSLVHSNRNTYLHWYQQKPGQAPRLLIYKVSNRFSGVPDRFSGSGSGTDFTLKISRVEAEDVGVYYCGQGTQVPYTFGQGTKLEIKRTVAAPSVFIFPPSDEQLKSGTASVVCLLNNFYPREAKVQWKVDNALQSGNSQESVTEQDSKDSTYSLSSTLTLSKADYEKHKVYACEVTHQGLSSPVTKSFNRGEC
notes: one-arm antibody (single Fab) with Fab-less hinge-Fc chain Hi-Kn010G3
What is called Kd is the concentration at which binding is half-saturated. The low end stands for a tighter complex, the high end for a looser complex. In the test with soluble human CD3ε chain [1], B1 registered a Kd of 71.5 nM.

B2: TR01H077-E22Hh/none-Hi-Kn010G3/L0200-k0 (antibody, human IgG1, kappa, L234A L235A, N297A)
heavy: QVQLVESGGGLVQPGRSLRLSCAASGFTFSNAWMHWVRQAPGKGLEWVAQIKDKSNNYATYYAESVKGRFTISRADSKNSIYLQMNSLKTEDTAVYYCRYVHYAAAEMVRDDIWGQGTTVTVSSASTKGPSVFPLAPSSKSTSGGTAALGCLVKDYFPEPVTVSWNSGALTSGVHTFPAVLQSSGLYSLSSVVTVPSSSLGTQTYICNVNHKPSNTKVDKKVEPKSCDKTHTCPPCPAPEAAGGPSVFLFPPKPKDTLMISRTPEVTCVVVDVSHEDPEVKFNWYVDGVEVHNAKTKPREEQYASTYRVVSVLTVLHQDWLNGKEYKCKVSNKALPAPIEKTISKAKGQPREPQVYTLPPSRCELTKNQVSLSCAVKGFYPSDIAVEWESNGQPENNYKTTPPVLDSDGSFFLVSKLTVDKSRWQQGNVFSCSVMHEALHNHYTQKSLSLSPDYKDDDDK
chain: EPKSSDKTHTCPPCPAPELLGGPSVFLFPPKPKDTLMISRTPEVTCVVVDVSHEDPEVKFNWYVDGVEVHNAKTKPREEQYNSTYRVVSVLTVLHQDWLNGKEYKCKVSNKALPAPIEKTISKAKGQPREPQVCTLPPSRDELTKNQVSLWCLVKGFYPSDIAVEWESNGQPENNYKTTPPVLDSDGSFFLYSKLTVDKSRWQQGNVFSCSVMHEALHNRYTQKSLSLSP
light: DIVMTQSPLSLPVTPGEPASISCRPSQSPVHSNRNTYLHWYQQKPGQAPRLLIYKVSNRFSGVPDRFSGSGSGTDFTLKISRVEAEDVGVYYCGQGTQVPYTFGQGTKLEIKRTVAAPSVFIFPPSDEQLKSGTASVVCLLNNFYPREAKVQWKVDNALQSGNSQESVTEQDSKDSTYSLSSTLTLSKADYEKHKVYACEVTHQGLSSPVTKSFNRGEC
notes: single-arm
Consider B2, for which the Kd in the test with soluble human CD3ε chain [2] came out at 6.12 nM.

B3: CE115HA124-E22Hh//-Hi-Kn010G3/L0000-k0 (antibody, human IgG1, kappa, L234A L235A, N297A)
heavy: QVQLVESGGGVVQPGRSLRLSCAASGFTFSNAWMHWVRQAPGKGLEWVAQIKALSNNYATYYAESVKGRFTISRDDSKNSLYLQMNSLKTEDTAVYYCRYVHYGAYYGVDAWGQGTTVTVSSASTKGPSVFPLAPSSKSTSGGTAALGCLVKDYFPEPVTVSWNSGALTSGVHTFPAVLQSSGLYSLSSVVTVPSSSLGTQTYICNVNHKPSNTKVDKKVEPKSCDKTHTCPPCPAPEAAGGPSVFLFPPKPKDTLMISRTPEVTCVVVDVSHEDPEVKFNWYVDGVEVHNAKTKPREEQYASTYRVVSVLTVLHQDWLNGKEYKCKVSNKALPAPIEKTISKAKGQPREPQVYTLPPSRCELTKNQVSLSCAVKGFYPSDIAVEWESNGQPENNYKTTPPVLDSDGSFFLVSKLTVDKSRWQQGNVFSCSVMHEALHNHYTQKSLSLSPDYKDDDDK
chain: EPKSSDKTHTCPPCPAPELLGGPSVFLFPPKPKDTLMISRTPEVTCVVVDVSHEDPEVKFNWYVDGVEVHNAKTKPREEQYNSTYRVVSVLTVLHQDWLNGKEYKCKVSNKALPAPIEKTISKAKGQPREPQVCTLPPSRDELTKNQVSLWCLVKGFYPSDIAVEWESNGQPENNYKTTPPVLDSDGSFFLYSKLTVDKSRWQQGNVFSCSVMHEALHNRYTQKSLSLSP
light: DIVMTQSPLSLPVTPGEPASISCRSSQSLVHSNRNTYLHWYQQKPGQAPRLLIYKVSNRFSGVPDRFSGSGSGTDFTLKISRVEAEDVGVYYCGQGTQVPYTFGQGTKLEIKRTVAAPSVFIFPPSDEQLKSGTASVVCLLNNFYPREAKVQWKVDNALQSGNSQESVTEQDSKDSTYSLSSTLTLSKADYEKHKVYACEVTHQGLSSPVTKSFNRGEC
notes: one-arm antibody (single Fab) with Fab-less hinge-Fc chain Hi-Kn010G3; label '//-Hi-Kn010G3' read as none-Hi-Kn010G3
As for B3, in the test with soluble human CD3ε chain [1], the affinity, expressed as Kd, was 143 nM.

B4: TR01H004-E22Hh//-Hi-Kn010G3/L0000-k0 (antibody, human IgG1, kappa, L234A L235A, N297A)
heavy: QVQLVESGGGVVQPGRSLRLSCAASGFTFSNAWMHWVRQAPGKGLEWVAQIKAKSNNYATYYAESVKGRFTISRDDSKNSLYLQMNSLKTEDTAVYYCRRVHYYYYYGVDAWGQGTTVTVSSASTKGPSVFPLAPSSKSTSGGTAALGCLVKDYFPEPVTVSWNSGALTSGVHTFPAVLQSSGLYSLSSVVTVPSSSLGTQTYICNVNHKPSNTKVDKKVEPKSCDKTHTCPPCPAPEAAGGPSVFLFPPKPKDTLMISRTPEVTCVVVDVSHEDPEVKFNWYVDGVEVHNAKTKPREEQYASTYRVVSVLTVLHQDWLNGKEYKCKVSNKALPAPIEKTISKAKGQPREPQVYTLPPSRCELTKNQVSLSCAVKGFYPSDIAVEWESNGQPENNYKTTPPVLDSDGSFFLVSKLTVDKSRWQQGNVFSCSVMHEALHNHYTQKSLSLSPDYKDDDDK
chain: EPKSSDKTHTCPPCPAPELLGGPSVFLFPPKPKDTLMISRTPEVTCVVVDVSHEDPEVKFNWYVDGVEVHNAKTKPREEQYNSTYRVVSVLTVLHQDWLNGKEYKCKVSNKALPAPIEKTISKAKGQPREPQVCTLPPSRDELTKNQVSLWCLVKGFYPSDIAVEWESNGQPENNYKTTPPVLDSDGSFFLYSKLTVDKSRWQQGNVFSCSVMHEALHNRYTQKSLSLSP
light: DIVMTQSPLSLPVTPGEPASISCRSSQSLVHSNRNTYLHWYQQKPGQAPRLLIYKVSNRFSGVPDRFSGSGSGTDFTLKISRVEAEDVGVYYCGQGTQVPYTFGQGTKLEIKRTVAAPSVFIFPPSDEQLKSGTASVVCLLNNFYPREAKVQWKVDNALQSGNSQESVTEQDSKDSTYSLSSTLTLSKADYEKHKVYACEVTHQGLSSPVTKSFNRGEC
notes: as for B3
For B4, binding with soluble human CD3ε chain [1] was put at a Kd of 135 nM.
